Source: publication PMC11633510

Legend:
Recombinant Protein A [1] = molecular target: Recombinant Protein A (UniProt P38507); experiment: MetaSPR; triple-layer (Ti-Au-Ag-Au) nanocup array chip, 96-well; Protein A (20 µg/mL in CBS buffer) immobilised 16 h, blocked with 1% BSA; IgG 0.1-66.7 nM in PBS; 10 min association, 15 min dissociation
Recombinant Protein A [2] = molecular target: Recombinant Protein A (UniProt P38507); experiment: MetaSPR; double-layer (Ti-Ag-Au) nanocup array chip, 96-well; Protein A (20 µg/mL in CBS buffer) immobilised 16 h, blocked with 1% BSA; IgG 0.1-66.7 nM in PBS; 10 min association, 15 min dissociation
Recombinant Protein A [3] = molecular target: Recombinant Protein A (UniProt P38507); experiment: MetaSPR; quantitative detection by differential absorption spectra, dual-wavelength OD difference (OD615-OD590); triple-layer chip; Protein A immobilised; IgG 0-10 µg/mL
Recombinant Protein A [4] = molecular target: Recombinant Protein A (UniProt P38507); experiment: MetaSPR; single-layer (Ti-Au) nanocup array chip, 96-well; Protein A (20 µg/mL in CBS buffer) immobilised 16 h, blocked with 1% BSA; IgG 0.1-66.7 nM in PBS; 10 min association, 15 min dissociation
Recombinant Protein A [5] = molecular target: Recombinant Protein A (UniProt P38507); experiment: MetaSPR; quadruple-layer (Ti-Ag-Au-Ag-Au) nanocup array chip, 96-well; Protein A (20 µg/mL in CBS buffer) immobilised 16 h, blocked with 1% BSA; IgG 0.1-66.7 nM in PBS; 10 min association, 15 min dissociation

## Immunoglobulin Antigen (Human IgG) (antibody)
Recombinant Protein A [1]
  Kd: 0.122 nM
Recombinant Protein A [2]
  Kd: 0.116 nM
Recombinant Protein A [3]
  maximum reaction value (dual-wavelength OD difference) at the highest IgG concentration (10 µg/mL): 0.435
Recombinant Protein A [4]
  Kd: 0.24 nM
Recombinant Protein A [5]
  Kd: 0.218 nM
